According to publication PMC10663459:

Key:
[1] = molecular target: VRC34.01_combo1 Fab; assay: BLI; conditions: n = 3 independent experiments; parent: est. 1.0; read off a plot
[2] = molecular target: fusion peptide V1 (ITC peptide) (HIV-1); assay: ITC
[3] = molecular target: fusion peptide V1 (ITC peptide); assay: ITC; conditions: parent: est. 33; read off a plot
[4] = molecular target: BG505 SOSIP trimer with FP v3 (AIGLGAMF); assay: yeast display FACS sort with NGS; conditions: Round 3 high-affinity sort, read off a plot
[5] = molecular target: BG505 SOSIP trimer with FP Thai (AVGIGAMI); assay: yeast display FACS sort with NGS; conditions: Round 3 high-affinity sort, read off a plot
[6] = molecular target: BG505 SOSIP trimer with FP v1 ([…]); assay: yeast display FACS sort with NGS; conditions: Round 3 high-affinity sort, VH-SSM library; parent: est. 1.8; read off a plot
[7] = molecular target: fusion peptide FP_v1 (V1: […]) (HIV-1); assay: ITC
[8] = VH-SSM library, parent: est. 1.4
[9] = VL-SSM library, parent: est. 0.4

With “His-tagged fusion peptide (residue 512-521), wild type (BLI peptide) A512G” the ratio to parent [1] was 0.88.

With “His-tagged fusion peptide (residue 512-521), wild type (BLI peptide) A517G” the ratio to parent [1] was 0.97.

For “His-tagged fusion peptide (residue 512-521), wild type (BLI peptide) F519G”, the ratio to parent [1] was 0.82.

“His-tagged fusion peptide (residue 512-521), wild type (BLI peptide) G514A” was tested, and the ratio to parent [1] was 0.97.

“His-tagged fusion peptide (residue 512-521), wild type (BLI peptide) G516A” was tested, and the ratio to parent [1] was 0.14.

Substance “His-tagged fusion peptide (residue 512-521), wild type (BLI peptide) I515A” has a ratio to parent [1] of 0.12.

“His-tagged fusion peptide (residue 512-521), wild type (BLI peptide) I515G” showed a ratio to parent [1] of 0.01.

For “His-tagged fusion peptide (residue 512-521), wild type (BLI peptide) V513A”, the ratio to parent [1] was 0.47.

Work on “His-tagged fusion peptide (residue 512-521), wild type (BLI peptide) V513G” yielded a ratio to parent [1] of 0.01.

In the case of “His-tagged fusion peptide (residue 512-521), wild type (BLI peptide) V518A”, the ratio to parent [1] is reported as 0.97.

With “His-tagged fusion peptide (residue 512-521), wild type (BLI peptide) V518G” the ratio to parent [1] was 0.83.

For VRC34.01 (template antibody), IgG, the Kd [2] was 33 nM.

For VRC34.01 (template antibody), IgG H:E2K, the Kd [3] was 27 nM.

Substance “VRC34.01 (template antibody), IgG H:E2K; H:A33P; H:T59F” has a Kd [3] of 2.2 nM.

“VRC34.01 (template antibody), IgG H:T59F” showed a Kd [3] of 7.5 nM.

VRC34.01 Fab H:A33P showed an enrichment [4, 8] of 55.

VRC34.01 Fab H:K12A showed an enrichment ([5]; VH-SSM library, parent: est. 0.7) of 450.

Substance VRC34.01 Fab H:T58Q has an enrichment [6] of 400.

VRC34.01 Fab H:T59F gave an enrichment [4, 8] of 480.

Work on VRC34.01 Fab H:T59Y yielded an enrichment [4, 8] of 2500.

With VRC34.01 Fab L:D1Y the enrichment [5, 9] was 580.

Work on VRC34.01 Fab L:S92T yielded an enrichment [5, 9] of 440 and an enrichment ([4]; VL-SSM library, parent: est. 1.7) of 110.

Substance VRC34.01 VH_T59F, IgG (antibody) has a fold higher affinity than VRC34.01 [2] of 4 fold.

In the case of VRC34.01-HC-E2K (antibody), the Kd [7] is reported as 28 nM.

For VRC34.01-HC-T59F (antibody), the Kd [7] was 7.7 nM and the stoichiometry N [7] was 0.8.

“VRC34.01_combo1 (VH_E2K_T59F), IgG (antibody)” was tested, and the fold better binding than VRC34.01 [2] was 6 fold.
